Experimental findings from US20160222130A1 (Astellas, published 2016) are described below.

Assay [1] concerns the target human Tie2 (on human Tie2-expressing cells) (human, UniProt Q02763 23-1124). The assay is described as follows: cell-based or functional assay.
Assay [2] addresses T1, Human Tie2 (1-452)g4-Fc (human, UniProt Q02763 23-452).
T1 construct: range 1-452
Kind of assay: ELISA; Tie2-Fc coated at 1 ug/mL, chemiluminescence. As for the experimental part:
(§1) The next day, the immobilized solution was removed, and the plate was washed with a TBS-T solution, and incubated for 60 minutes by the addition of 50 μL of a Blocker™ Casein in TBS (Thermo Fisher Scientific Inc., 37532) to perform blocking. The resultant was washed with a TBS-T solution, and TIE-1-Igγ1-LALA, diluted with 0.05% Tween 20 (Nacalai Tesque Inc., 28353-85)—containing Blocker™ Casein in TBS from 0.03 ng/mL to 100 ng/mL through eight steps, was added thereto in the amount of 20 μL per well. The resultant was incubated at room temperature for 90 minutes and then washed with a TBS-T solution three times, and 20 μL of a biotin-labeled anti-human kappa light chain antibody, which had been diluted to 0.1 μg/mL with 0.05% Tween 20-containing Blocker™ Casein in TBS, was added thereto. The resultant was incubated at room temperature for 60 minutes and then washed with a TBS-T solution three times, and 20 μL of alkaline phosphatase-labeled streptavidin, which had been diluted to 0.1 μg/mL with 0.05% Tween 20-containing Blocker™ Casein in TBS, was added thereto. The resultant was incubated at room temperature for 60 minutes and then washed with a TBS-T solution three times, and 50 μL of Chemiluminescent Ultra Sensitive AP Microwell and/or Membrane Substrate (450 nm), which had been 5-fold diluted with 1 mM MgCl₂-containing 20 mM TBS (pH 9.8) as a substrate, was added thereto. The resultant was incubated at room temperature under light-shielding for 40 minutes, and then luminescent intensity thereof was measured with an EnVision™ multi-label counter. The EC₅₀ value of TIE-1-Igγ1-LALA with respect to the human Tie2 (1-452)-Fc chimeric protein and 23 mutant proteins thereof were calculated. The relative value of luminescent intensity of 100 ng/mL TIE-1-Igγ1-LALA as maximum concentration point with respect to human Tie2 (1-452)-Fc chimeric protein and 23 mutant proteins thereof when the convergence value of the sigmoid curve of TIE-1-Igγ1-LALA binding to the human Tie2 (1-452)-Fc chimeric protein which was taken as 100% was calculated (Table 8 and Table 9). Further, the EC₅₀ value and the convergence value were calculated by Sigmoid-Emax model non-linear regression analysis.
(In general: An ELISA detects its analyte on a solid surface through an enzyme-linked reagent.)

A further assay has as its target T2, Human Tie2 (1-452)A1-Fc (human, UniProt Q02763 23-452).
T2 construct: range 1-452
Described as above. As for the experimental part: as §1

The next assay deals with T3, Human Tie2 (1-452)A2-Fc (human, UniProt Q02763 23-452).
T3 construct: range 1-452
T3 sequence (Q02763 other isoform, or with tags, fused parts or gaps limits assumed, form in doubt): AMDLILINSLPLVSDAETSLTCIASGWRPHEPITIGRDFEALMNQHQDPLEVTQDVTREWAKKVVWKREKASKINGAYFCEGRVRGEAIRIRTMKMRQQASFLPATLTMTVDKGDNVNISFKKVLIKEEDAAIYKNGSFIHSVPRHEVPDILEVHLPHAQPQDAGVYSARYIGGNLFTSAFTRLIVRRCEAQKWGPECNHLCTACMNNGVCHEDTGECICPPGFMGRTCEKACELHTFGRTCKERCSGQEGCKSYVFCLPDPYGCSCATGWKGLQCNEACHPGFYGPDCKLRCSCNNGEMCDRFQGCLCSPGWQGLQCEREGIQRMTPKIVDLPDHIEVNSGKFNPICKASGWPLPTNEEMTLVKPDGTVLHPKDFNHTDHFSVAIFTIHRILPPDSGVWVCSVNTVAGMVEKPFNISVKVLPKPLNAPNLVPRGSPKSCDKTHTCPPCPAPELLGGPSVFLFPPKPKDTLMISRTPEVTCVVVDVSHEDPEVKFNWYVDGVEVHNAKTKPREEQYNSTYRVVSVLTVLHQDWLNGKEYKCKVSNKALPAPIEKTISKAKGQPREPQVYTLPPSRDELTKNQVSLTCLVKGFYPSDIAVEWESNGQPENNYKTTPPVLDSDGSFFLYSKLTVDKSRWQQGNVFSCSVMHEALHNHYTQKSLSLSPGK
The description is as above. As for the experimental part:
as §1

The next assay addresses T4, Human Tie2 (1-452)A3-Fc (human, UniProt Q02763 23-452).
T4 construct: range 1-452
Described as above. Here is the method: as §1

The next assay concerns the target T5, Human Tie2 (1-452)A4-Fc (human, UniProt Q02763 23-452).
T5 construct: range 1-452
Described as above. As for the experimental part:
as §1

A further assay concerns the target T6, Human Tie2 (1-452)A5-Fc (human, UniProt Q02763 23-452).
T6 construct: range 1-452
Described as above. As for the experimental part:
as §1

A further assay deals with T7, Human Tie2 (1-452)A6-Fc (human, UniProt Q02763 23-452).
T7 construct: range 1-452
Described as above. As for the experimental part:
as §1

For assay [3], the target named is T8, human Tie2 (1-452)-Fc chimeric protein (human, UniProt Q02763 23-452).
T8 construct: range 1-452; The stated range 1-452 begins at residue 1 of the precursor
T8 sequence (Q02763 other isoform, or with tags, fused parts or gaps mutant limits assumed, form in doubt): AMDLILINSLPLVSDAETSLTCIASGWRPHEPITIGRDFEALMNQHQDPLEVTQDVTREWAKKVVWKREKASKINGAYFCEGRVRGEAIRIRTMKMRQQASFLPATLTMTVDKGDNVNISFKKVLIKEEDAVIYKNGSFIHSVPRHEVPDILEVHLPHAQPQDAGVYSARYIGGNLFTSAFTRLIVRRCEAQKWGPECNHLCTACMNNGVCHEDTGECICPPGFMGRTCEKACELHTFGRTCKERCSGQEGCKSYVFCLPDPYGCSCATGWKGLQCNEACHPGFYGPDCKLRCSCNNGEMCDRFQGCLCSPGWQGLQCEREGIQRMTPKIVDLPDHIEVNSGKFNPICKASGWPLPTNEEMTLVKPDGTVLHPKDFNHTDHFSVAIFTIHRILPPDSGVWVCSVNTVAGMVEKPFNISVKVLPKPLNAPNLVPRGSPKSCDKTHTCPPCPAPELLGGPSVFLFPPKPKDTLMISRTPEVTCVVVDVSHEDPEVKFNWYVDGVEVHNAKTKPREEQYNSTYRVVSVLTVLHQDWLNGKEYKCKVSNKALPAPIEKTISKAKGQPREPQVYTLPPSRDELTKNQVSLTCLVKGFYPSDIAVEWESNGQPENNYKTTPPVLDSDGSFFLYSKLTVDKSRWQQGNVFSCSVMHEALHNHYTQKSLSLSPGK
Described as above. As for the experimental part: as §1

In the next assay the target is T9, Human Tie2 (1-452)r2-Fc (human, UniProt Q02763 23-452).
T9 construct: range 1-452
Kind of assay: ELISA; Tie2-Fc coated at 1 ug/mL; signal at 100 ng/mL antibody vs convergence value on the parent. As for the experimental part: as §1

The target in another assay is T10, Human Tie2 (1-452)r6-Fc (human, UniProt Q02763 23-452).
T10 construct: range 1-452
Described as above. Here is the method:
as §1

For another assay, the target named is T11, Human Tie2 (1-452)g1-Fc (human, UniProt Q02763 23-452).
T11 construct: range 1-452
The assay is described as above. As for the experimental part:
as §1

The target of the next assay is T12, Human Tie2 (1-452)g2-Fc (human, UniProt Q02763 23-452).
T12 construct: range 1-452
The assay is described as above. Here is the method: as §1

The target of assay [4] is T1, Human Tie2 (1-452)g4-Fc. The assay is described as above. Here is the method: as §1
For a further assay, the target named is T13, Human Tie2 (1-452)g5-Fc (human, UniProt Q02763 23-452).
T13 construct: range 1-452
The assay is described as above. As for the experimental part:
as §1

The target in the next assay is T14, Human Tie2 (1-452)g6-Fc (human, UniProt Q02763 23-452).
T14 construct: range 1-452
T14 sequence (Q02763 other isoform, or with tags, fused parts or gaps limits assumed, form in doubt): as the sequence (Q02763 other isoform, or with tags, fused parts or gaps mutant limits assumed, form in doubt) above, with L176A counted along it
The description is as above. Here is the method:
as §1

Assay [5] concerns the target T8, human Tie2 (1-452)-Fc chimeric protein. Described as above. As for the experimental part: as §1
A further assay concerns the target T15, Human Tie2 (1-452)r1-Fc (human, UniProt Q02763 23-452).
T15 construct: range 1-452
The description is as above. As for the experimental part: as §1

T1 sequence (Q02763 other isoform, or with tags, fused parts or gaps limits assumed, form in doubt): as the sequence (Q02763 other isoform, or with tags, fused parts or gaps mutant limits assumed, form in doubt) above, with G173E counted along it
T6 sequence (Q02763 other isoform, or with tags, fused parts or gaps limits assumed, form in doubt): as the sequence (Q02763 other isoform, or with tags, fused parts or gaps mutant limits assumed, form in doubt) above, with S142A counted along it
T15 sequence (Q02763 other isoform, or with tags, fused parts or gaps limits assumed, form in doubt): as the sequence (Q02763 other isoform, or with tags, fused parts or gaps mutant limits assumed, form in doubt) above, with R145A, H146A, E147A counted along it

B1: TIE-1-Igγ1-LALA (antibody, human IgG1, kappa, L234A L235A)
heavy: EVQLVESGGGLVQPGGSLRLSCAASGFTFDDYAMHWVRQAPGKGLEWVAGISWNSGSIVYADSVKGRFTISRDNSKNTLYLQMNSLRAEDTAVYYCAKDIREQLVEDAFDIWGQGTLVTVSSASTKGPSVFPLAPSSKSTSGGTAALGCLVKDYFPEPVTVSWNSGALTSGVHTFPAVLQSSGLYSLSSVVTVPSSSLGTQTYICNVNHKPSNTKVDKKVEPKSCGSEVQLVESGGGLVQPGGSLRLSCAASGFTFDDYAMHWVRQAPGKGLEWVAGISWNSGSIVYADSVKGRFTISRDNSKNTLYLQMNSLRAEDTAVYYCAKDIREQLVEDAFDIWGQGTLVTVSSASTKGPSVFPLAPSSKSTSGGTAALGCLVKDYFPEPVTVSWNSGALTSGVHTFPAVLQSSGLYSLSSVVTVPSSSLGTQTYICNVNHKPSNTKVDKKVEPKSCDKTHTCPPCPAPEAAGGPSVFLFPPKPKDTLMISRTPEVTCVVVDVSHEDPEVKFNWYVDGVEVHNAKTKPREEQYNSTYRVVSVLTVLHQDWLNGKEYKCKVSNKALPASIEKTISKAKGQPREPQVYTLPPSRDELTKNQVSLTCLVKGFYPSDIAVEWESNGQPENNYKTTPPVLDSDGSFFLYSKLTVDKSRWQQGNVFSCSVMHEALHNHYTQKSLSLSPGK
light: DIQMTQSPSSLSASVGDRVTITCRSSQSLLHSHRYNYLDWYQQKPGKAPKLLIYLGSNRASGVPSRFSGSGSGTDFTLTISSVQPEDFATYYCMQTLQTPLTFGQGTKVEIKRTVAAPSVFIFPPSDEQLKSGTASVVCLLNNFYPREAKVQWKVDNALQSGNSQESVTEQDSKDSTYSLSSTLTLSKADYEKHKVYACEVTHQGLSSPVTKSFNRGEC
notes: Tandem tetravalent format: two heavy chains (VH-CH1-linker-VH-CH1-CH2-CH3) and four light chains; also called tetravalent anti-human Tie2 antibody with L234A, L235A and P331S
For orientation: EC50 means the concentration giving half of the maximal effect. For B1, the “EC50 value of anti-apoptotic activity, human Tie2-expressing BaF3 cell” value in assay [1] turned out to be 3.65 ng/mL. Also, the EC50 in the assay with Human Tie2 (1-452)g4-Fc [2] was 18 ng/mL; in the assay with Human Tie2 (1-452)A1-Fc, 1.3 ng/mL; in the assay with Human Tie2 (1-452)A2-Fc it was 1.3 ng/mL; with Human Tie2 (1-452)A3-Fc, 1 ng/mL; in the assay with Human Tie2 (1-452)A4-Fc it was 1 ng/mL; in the assay with Human Tie2 (1-452)A5-Fc, 0.9 ng/mL. Besides, the EC50 with Human Tie2 (1-452)A6-Fc amounted to 1.1 ng/mL; in assay [3] it was 1 ng/mL. In addition, the “Relative value (%) of luminescent intensity” value was 96% with Human Tie2 (1-452)r2-Fc; 100% with Human Tie2 (1-452)r6-Fc; 3% in the assay with Human Tie2 (1-452)g1-Fc; 72% with Human Tie2 (1-452)g2-Fc; 53% in the assay with Human Tie2 (1-452)g4-Fc [4]; 91% with Human Tie2 (1-452)g5-Fc. Moreover, the “Relative value (%) of luminescent intensity” value with Human Tie2 (1-452)g6-Fc came to 105%; in assay [5], 97%; with Human Tie2 (1-452)r1-Fc, 97%.
